Literature values as cited in patent US10954506B2 (priority 2013, dated 2021).

Conditions: in vivo, iv

B1: BChE: Butyrylcholinesterase, natural stoichiometric bioscavenger found as soluble protein in human plasma (protein, UniProt P06276 29-602, looked up)
Cholinesterase: EDDIIIATKNGKVRGMNLTVFGGTVTAFLGIPYAQPPLGRLRFKKPQSLTKWSDIWNATKYANSCCQNIDQSFPGFHGSEMWNPNTDLSEDCLYLNVWIPAPKPKNATVLIWIYGGGFQTGTSSLHVYDGKFLARVERVIVVSMNYRVGALGFLALPGNPEAPGNMGLFDQQLALQWVQKNIAAFGGNPKSVTLFGESAGAASVSLHLLSPGSHSLFTRAILQSGSFNAPWAVTSLYEARNRTLNLAKLTGCSRENETEIIKCLRNKDPQEILLNEAFVVPYGTPLSVNFGPTVDGDFLTDMPDILLELGQFKKTQILVGVNKDEGTAFLVYGAPGFSKDNNSIITRKEFQEGLKIFFPGVSEFGKESILFHYTDWVDDQRPENYREALGDVVGDYNFICPALEFTKKFSEWGNNAFFYYFEHRSSKLPWPEWMGVMHGYEIEFVFGLPLERRDNYTKAEEILSRSIVKRWANFAKYGNPNETQNNSTSWPVFKSTEQKYLTLNTESTRIMTKLRAQQCRFWTSFFPKVLEMTGNIDEAEWEWKAGFHRWNNYMMDWKNQFNDYTSKKESCVGL
  effective dose: about 3 mg/kg
